Test results taken from patent publication US12161729B2, “Methods and compositions for visualizing a ureter in a surgical procedure” (ALUME BIOSCIENCES, INC., priority 2021, dated 2024).
Read-outs that look alike come from different tables or passages of the source. Residues, ends and D or L forms follow the SMILES beside them. *: point of attachment. 5FAM = O=C1OC2(c3ccc(O)cc3Oc3cc(O)ccc32)c2ccc(C(=O)*)cc21; FAM = carboxyfluorescein

Legend:
[1] = system: rodent resected nerve tissues; settings: rodent tissue, topical administration; cited from earlier work
[2] = in vivo; cited from earlier work
[3] = system: human resected nerve tissues; settings: human tissue, topical administration; cited from earlier work
nerve = settings: cited from earlier work; for nerve detection following intravenous administration: rodent models
ureter [4] = assay: Time course of ureter illumination in rodent models; type: in vivo; settings: rodent model
Description: (§1) A rodent model was to use to evaluate the dynamics of fluorescent visualization of 5-FAM-QVPWEEPYYVVKKSSGG-NH2 (HNP401-N-2 with GG linker; SEQ ID NO:747) following intravenous administration. The conjugate was administered in a wide range of amounts and fluorescence was detected using a customized microscope. […] Rather it reflects fluorescence of urine flowing down the ureter from the kidney to the bladder.
These include molecules consisting of related HNP401 peptides conjugated to FAM, as well as molecules consisting of related HNP401 peptides conjugated to other fluorescent moieties. In addition, the studies presented here allow concurrent visualization of nerves in conjunction with ureters.

ureter [5] = assay: Fluorescent visualization of the ureter after intravenous administration, mouse model; type: in vivo
Description: FIG. 1: Bright field and fluorescence overlay image of a ureter in a living wild type mouse following intravenous administration of about 2000 nanomoles of a fluorescent conjugate (SEQ ID NO:747). Images were obtained 2 hours following administration using a customized fluorescence detection microscope. Left panel: White reflectance image. Right panel: fluorescence overlay.
as §1

[6] = Bioanalysis of fluorescent conjugate in the urine of surgery patients (LC-MS/MS); type: in vivo, human; settings: for Test Drug (ng/mL) in urine / level at 30 min after infusion: 500 mg intravenous; for level at 30 min after infusion: human, urine, iv, 500 mg, read-out: Test Drug (ng/mL) in urine
Description: Urine samples were collected 30 minutes before intravenous administration of 500 mg of parent test drug (corresponding to the fluorescent-conjugated peptide, SEQ ID NO:747), 30 minutes after infusion prior to head and neck surgery, and 22 hours later. The concentration of intact parent test drug was determined by liquid chromatography with tandem mass spectrometry (LC-MS/MS) using a qualified bioanalytical method. Also evaluated was the presence of metabolites M3-M8 (initially identified from in vitro studies) corresponding to shortened versions of the parent peptide conjugated to the fluorescent moiety.

[7] = system: rat sciatic and prostate nerves; settings: several hours after intravenous administration; cited from earlier work

| Compound | fluorescent labeling of resected nerve tissues [1] | serum half-life (as measured by serum fluorescence) [2] | fluorescent labeling of resected nerve tissues [3] | half-life of nerve fluorescence (nerve; in vivo) | persistence of fluorescence in tissues (nerve; in vivo) | nerve detection following intravenous administration (nerve) | time at which fluorescent visualization of the ureter was first observed following conjugate administration (ureter [4]; early observation) | time up to which fluorescent visualization of the ureter was observed following conjugate administration (ureter [4]; extended time course) | ureter illumination (fluorescence) (ureter [5]; 2 hours following intravenous administration of about 2000 nanomoles (~200 mg/kg)) | ureter illumination (fluorescence) (ureter [5]; intravenous, 100 nanomoles to 2000 nanomoles (~10 mg/kg to ~200 mg/kg)) | detection in urine, number of subjects ([6]; 30-minute time-point, test drug or fluorescent metabolites, five subjects evaluated) | Test Drug (ng/mL) in urine ([6]; Subject 1, 30 min after infusion) | Test Drug (ng/mL) in urine ([6]; Subject 2, 22 hours) | Test Drug (ng/mL) in urine ([6]; Subject 3, 22 hours) | Test Drug (ng/mL) in urine ([6]; Subject 4, 30 min after infusion) | level at 30 min after infusion ([6]; Subject 2, 30 min after infusion) [ng/mL] | level at 30 min after infusion ([6]; Subject 3, 30 min after infusion) [ng/mL] | level at 30 min after infusion ([6]; Subject 5, 30 min after infusion) [ng/mL] | half-life in the blood [2] [min] | fluorescence in rat sciatic and prostate nerves [7] |
| --- | --- | --- | --- | --- | --- | --- | --- | --- | --- | --- | --- | --- | --- | --- | --- | --- | --- | --- | --- | --- |
| FAM-NP41: carboxyfluorescein (FAM) coupled to the C-terminal lysine of acetylated NP41 (Ac-SHSNTQTLAKAPEHTGK) via a lysinamide linkage (Ac-SHSNTQTLAKAPEHTGK(FAM)-NH2) [reference compound] | fluorescent labeling | about ten | fluorescent labeling | about 50 minutes | persist at a low level in tissues for hours | sensitive nerve detection | – | – | – | – | – | – | – | – | – | – | – | – | – | – |
| CC(C)[C@H](NC(=O)[C@H](Cc1ccc(O)cc1)NC(=O)[C@H](Cc1ccc(O)cc1)NC(=O)[C@@H]1CCCN1C(=O)[C@H](CCC(=O)O)NC(=O)[C@H](CCC(=O)O)NC(=O)[C@H](Cc1c[nH]c2ccccc12)NC(=O)[C@@H]1CCCN1C(=O)[C@@H](NC(=O)[C@H](CCC(N)=O)NC(=O)c1ccc2c(c1)C(=O)OC21c2ccc(O)cc2Oc2cc(O)ccc21)C(C)C)C(=O)N[C@H](C(=O)N[C@@H](CCCCN)C(=O)N[C@@H](CCCCN)C(=O)N[C@@H](CO)C(=O)N[C@@H](CO)C(=O)NCC(=O)NCC(N)=O)C(C)C [SEQ ID NO:747, 5-FAM-QVPWEEPYYVVKKSSGG-NH2] (5FAM-QVPWEEPYYVVKKSSGG-NH2) | – | – | – | – | – | – | less than 1 hour | at least 6 hours | readily illuminated | revealed ureter illumination | detected in four of five subjects | BQL* (BQL: Below Quantitation Limit (10 ng/ml)) | BQL (BQL: Below Quantitation Limit (10 ng/ml)) | BQL (BQL: Below Quantitation Limit (10 ng/ml)) | BQL (BQL: Below Quantitation Limit (10 ng/ml)) | 11.5 | 19 | 10.1 | – | – |
| FAM-HNP401: FAM conjugated to the C-terminal cysteine of acetylated HNP401 with GCC linker (Ac-SGQVPWEEPYYVVKKSSGGC-CONH2) (Ac-SGQVPWEEPYYVVKKSSGGC(FAM)-NH2) | fluorescent labeling | – | fluorescent labeling | – | – | sensitive nerve detection | – | – | – | – | – | – | – | – | – | – | – | – | 15 | observed |
